Measured values: publication PMC8298264, “Function of cofactor Akirin2 in the regulation of gene expression in model human neutrophil-like HL60 cells” (Bioscience Reports, 2021)

B1: sp¦Q14683¦SMC1A_HUMAN (protein, UniProt Q14683 1-1233, looked up)
Structural maintenance of …: MGFLKLIEIENFKSYKGRQIIGPFQRFTAIIGPNGSGKSNLMDAISFVLGEKTSNLRVKTLRDLIHGAPVGKPAANRAFVSMVYSEEGAEDRTFARVIVGGSSEYKINNKVVQLHEYSEELEKLGILIKARNFLVFQGAVESIAMKNPKERTALFEEISRSGELAQEYDKRKKEMVKAEEDTQFNYHRKKNIAAERKEAKQEKEEADRYQRLKDEVVRAQVQLQLFKLYHNEVEIEKLNKELASKNKEIEKDKKRMDKVEDELKEKKKELGKMMREQQQIEKEIKEKDSELNQKRPQYIKAKENTSHKIKKLEAAKKSLQNAQKHYKKRKGDMDELEKEMLSVEKARQEFEERMEEESQSQGRDLTLEENQVKKYHRLKEEASKRAATLAQELEKFNRDQKADQDRLDLEERKKVETEAKIKQKLREIEENQKRIEKLEEYITTSKQSLEEQKKLEGELTEEVEMAKRRIDEINKELNQVMEQLGDARIDRQESSRQQRKAEIMESIKRLYPGSVYGRLIDLCQPTQKKYQIAVTKVLGKNMDAIIVDSEKTGRDCIQYIKEQRGEPETFLPLDYLEVKPTDEKLRELKGAKLVIDVIRYEPPHIKKALQYACGNALVCDNVEDARRIAFGGHQRHKTVALDGTLFQKSGVISGGASDLKAKARRWDEKAVDKLKEKKERLTEELKEQMKAKRKEAELRQVQSQAHGLQMRLKYSQSDLEQTKTRHLALNLQEKSKLESELANFGPRINDIKRIIQSREREMKDLKEKMNQVEDEVFEEFCREIGVRNIREFEEEKVKRQNEIAKKRLEFENQKTRLGIQLDFEKNQLKEDQDKVHMWEQTVKKDENEIEKLKKEEQRHMKIIDETMAQLQDLKNQHLAKKSEVNDKNHEMEEIRKKLGGANKEMTHLQKEVTAIETKLEQKRSDRHNLLQACKMQDIKLPLSKGTMDDISQEEGSSQGEDSVSGSQRISSIYAREALIEIDYGDLCEDLKDAQAEEEIKQEMNTLQQKLNEQQSVLQRIAAPNMKAMEKLESVRDKFQETSDEFEAARKRAKKAKQAFEQIKKERFDRFNACFESVATNIDEIYKALSRNSSAQAFLGPENPEEPYLDGINYNCVAPGKRFRPMDNLSGGEKTVAALALLFAIHSYKPAPFFVLDEIDAALDNTNIGKVANYIKEQSTCNFQAIVISLKEEFYTKAESLIGVYPEQGDCVISKVLTFDLTKYPDANPNPNEQ
B2: sp¦Q15397¦PUM3_HUMAN (protein, UniProt Q15397 1-648, looked up)
Pumilio homolog 3: MEVKGKKQFTGKSTKTAQEKNRFHKNSDSGSSKTFPTRKVAKEGGPKVTSRNFEKSITKLGKKGVKQFKNKQQGDKSPKNKFQPANKFNKKRKFQPDGRSDESAAKKPKWDDFKKKKKELKQSRQLSDKTNYDIVVRAKQMWEILRRKDCDKEKRVKLMSDLQKLIQGKIKTIAFAHDSTRVIQCYIQYGNEEQRKQAFEELRDDLVELSKAKYSRNIVKKFLMYGSKPQIAEIIRSFKGHVRKMLRHAEASAIVEYAYNDKAILEQRNMLTEELYGNTFQLYKSADHRTLDKVLEVQPEKLELIMDEMKQILTPMAQKEAVIKHSLVHKVFLDFFTYAPPKLRSEMIEAIREAVVYLAHTHDGARVAMHCLWHGTPKDRKVIVKTMKTYVEKVANGQYSHLVLLAAFDCIDDTKLVKQIIISEIISSLPSIVNDKYGRKVLLYLLSPRDPAHTVREIIEVLQKGDGNAHSKKDTEVRRRELLESISPALLSYLQEHAQEVVLDKSACVLVSDILGSATGDVQPTMNAIASLAATGLHPGGKDGELHIAEHPAGHLVLKWLIEQDKKMKENGREGCFAKTLVEHVGMKNLKSWASVNRGAIILSSLLQSCDLEVANKVKAALKSLIPTLEKTKSTSKGIEILLEKLST

System: human HL60 cells
Assay: SWATH-MS proteomics, differential protein representation, akirin2 KO vs WT HL60 cells
Assay type: cell-based
Settings: akirin2 KO vs WT HL60 cells, sheet "Under-represented in KO"
How it was run: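 Read-out is label-free SWATH-MS protein area, globally normalized to total detected-protein area, with identifications held at 1% FDR against a library from information-dependent acquisition.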

Molecule	Fold Change	Log (Fold Change)	Fold Change (KO vs WT)	Log (Fold Change) (KO vs WT)
B1	0.2754	-0.5601		
B2			0.6182	-0.2089
